# In publication PMC8284805, “Mechanism underlying the DNA-binding preferences of the Vibrio cholerae and vibriophage VP882 VqmA quorum-sensing receptors”:
# T1: VqmAPhage (Vibriophage VP882, UniProt A2I306 1-235)
# T1 sequence: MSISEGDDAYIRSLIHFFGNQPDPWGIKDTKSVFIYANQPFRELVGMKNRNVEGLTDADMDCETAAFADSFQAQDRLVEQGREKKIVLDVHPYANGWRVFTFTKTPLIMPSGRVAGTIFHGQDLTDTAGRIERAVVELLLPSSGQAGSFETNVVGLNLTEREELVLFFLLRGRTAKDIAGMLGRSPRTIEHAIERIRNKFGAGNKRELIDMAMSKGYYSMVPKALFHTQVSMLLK
# Experiments:
# [1] = system: GST-DBDPhage (Vibriophage VP882); assay: EMSA; conditions: EMSA: 25 nM DNA, 18.75-600 nM protein (dimer), 6% DNA retardation gel, SYBR Green; buffer, pH and temperature not given (cited protocol); EC50 values only in …
# [2] = biological target: GST-DBDPhage (GST fused to the N-terminus of the VqmAPhage DNA-binding domain) (not stated | vibriophage VP882); assay: SEC; gel filtration of the purified proteins, UV280 traces (S3D Fig)
# [3] = biological target: GST-DBDVc (GST fused to the N-terminus of the VqmAVc DNA-binding domain) (not stated | Vibrio cholerae); assay: as above
# VqmAPhage [4] = biological target: T1, VqmAPhage; assay: EMSA; EMSA: 25 nM DNA, 18.75-600 nM protein (dimer), 6% DNA retardation gel, SYBR Green; buffer, pH and temperature not given (cited protocol); EC50 values only in S2A Fig; conditions: protein: recombinant; chain copies: 2; blunt
# VqmAVc = VqmAVc (Vibrio cholerae, UniProt A0A0F0AZW0 1-246); assay: as above; conditions: protein: recombinant; chain copies: 2; blunt
# VqmAPhage [5] = biological target: T1, VqmAPhage; assay: EMSA; half as strong as PvqmR*; EMSA: 25 nM DNA, 18.75-600 nM protein (dimer), 6% DNA retardation gel, SYBR Green; buffer, pH and temperature not given (cited protocol); EC50 values only in S2A Fig; conditions: protein: recombinant; chain copies: 2; blunt
molecule,measurement,setting,value
GAATACACTCCTTGTAAGTGATTGTTATAAGGAGCTTTATTCTTGATGCATATAAGAAATACCGATAGGGGGAAAAATACCCTGATAAGCAGCTGCTAAAATTGATAAATGTCAATAAGCGAAGGGGATGATGC (double strand) [Pqtip],binding signal (fold stronger than PvqmR),[1],5
GST-DBDPhage (GST fused to the N-terminus of the VqmAPhage DNA-binding domain),stoichiometry N,[2],2
GST-DBDVc (GST fused to the N-terminus of the VqmAVc DNA-binding domain),stoichiometry N,[3],2
PvqmR* (dsDNA) DNA 1: TCCGAGTATTGCGCGAGCTGTAATGTTGACTCAAACAATTATGCATAAAGGGGGGAAAAATACCCTTTTTCATTTGTACCGCGTTCGGTAAAGTACAAAC DNA 2: GTTTGTACTTTACCGAACGCGGTACAAATGAAAAAGGGTATTTTTCCCCCCTTTATGCATAATTGTTTGAGTCAACATTACAGCTCGCGCAATACTCGGA,binding signal,VqmAPhage [4],~2 fold stronger than Pqtip*
Pqtip* (dsDNA) DNA 1: GTGATTGTTATAAGGAGCTTTATTCTTGATGCATATAAGAAATACCGATAGGGGGATTTCCCCCCTGATAAGCAGCTGCTAAAATTGATAAATGTCAATA DNA 2: TATTGACATTTATCAATTTTAGCAGCTGCTTATCAGGGGGGAAATCCCCCTATCGGTATTTCTTATATGCATCAAGAATAAAGCTCCTTATAACAATCAC,binding result,VqmAVc,binds
same,binding result,VqmAPhage [5],binds
